Like-named read-outs stand apart in the source and are kept apart here.
What was measured:
INSM1 ZF1-ZF5 [1] = biological target: T1, INSM1 ZF1-ZF5 (human, UniProt Q01101 257-497); assay: EMSA
INSM1 ZF3 = INSM1 ZF3 (human, UniProt Q01101 346-396); assay: NMR titration
INSM1 ZF1-ZF5 [2] = biological target: T1, INSM1 ZF1-ZF5; assay: NMR titration
TEAD1-TEAD R80A = TEAD1-TEAD R80A (UniProt P28347 28-104, R80A); assay: EMSA
TEAD1-TEAD L79A = TEAD1-TEAD L79A (UniProt P28347 28-104, L79A); assay: EMSA
TEAD1-TEAD R75A = TEAD1-TEAD R75A (UniProt P28347 28-104, R75A); assay: EMSA
INSM1 ZF1-ZF5 [3] = biological target: T1, INSM1 ZF1-ZF5; assay: EMSA; remark: listed apart in the source
TEAD1-TEAD = TEAD1-TEAD (UniProt P28347 28-104); assay: EMSA
INSM1 ZF1;TEAD1-TEAD [4] = biological target: T2, INSM1 ZF1;TEAD1-TEAD (human;human?, UniProt Q01101;P28347 257-292;28-104, |); assay: EMSA
CTCF ZF3-ZF7 = biological target: T3, CTCF ZF3-ZF7 (human, UniProt P49711 317-467); assay: EMSA
T3 sequence: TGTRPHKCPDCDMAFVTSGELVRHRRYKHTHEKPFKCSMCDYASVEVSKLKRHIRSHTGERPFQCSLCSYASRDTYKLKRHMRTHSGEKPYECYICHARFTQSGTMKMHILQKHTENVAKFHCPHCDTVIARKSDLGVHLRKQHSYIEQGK

INSM1 ZF1;TEAD1-TEAD [5] = biological target: T2, INSM1 ZF1;TEAD1-TEAD; assay: AUC

T1 sequence (Q01101 257-497): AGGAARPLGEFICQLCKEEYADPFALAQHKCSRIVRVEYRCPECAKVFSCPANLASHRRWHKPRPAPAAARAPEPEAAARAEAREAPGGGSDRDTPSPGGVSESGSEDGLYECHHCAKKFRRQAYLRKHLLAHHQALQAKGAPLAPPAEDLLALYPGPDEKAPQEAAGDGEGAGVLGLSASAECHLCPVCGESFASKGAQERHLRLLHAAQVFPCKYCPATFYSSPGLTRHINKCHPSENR
T2 sequence (Q01101 257-292, chain 1 of 2): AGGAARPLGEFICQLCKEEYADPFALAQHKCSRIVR
T2 sequence (P28347 28-104, chain 2 of 2): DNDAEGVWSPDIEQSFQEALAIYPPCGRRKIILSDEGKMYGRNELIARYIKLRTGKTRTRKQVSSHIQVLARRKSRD
INSM1 ZF3, sequence (Q01101 346-396): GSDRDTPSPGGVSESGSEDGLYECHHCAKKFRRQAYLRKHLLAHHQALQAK
TEAD1-TEAD R80A, sequence (P28347 28-104 R80A): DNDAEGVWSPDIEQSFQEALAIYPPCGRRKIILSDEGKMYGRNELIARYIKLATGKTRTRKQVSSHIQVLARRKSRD
TEAD1-TEAD, sequence (P28347 28-104): as the sequence (P28347 28-104, chain 2 of 2) above
TEAD1-TEAD L79A, sequence (P28347 28-104 L79A): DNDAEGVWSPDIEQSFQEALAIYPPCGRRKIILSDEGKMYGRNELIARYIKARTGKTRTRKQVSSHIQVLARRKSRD
TEAD1-TEAD R75A, sequence (P28347 28-104 R75A): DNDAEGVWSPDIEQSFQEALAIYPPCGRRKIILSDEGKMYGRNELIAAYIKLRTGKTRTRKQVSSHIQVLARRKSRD

B1: M1 (dsDNA)
DNA 1: TGTCAGGGGGCA
DNA 2: TGCCCCCTGACA
Kd (INSM1 ZF1-ZF5 [1]): 6 µM

B2: M2 (unlabeled) (dsDNA)
DNA 1: TACCACCAGGGGGCAGT
DNA 2: ACTGCCCCCTGGTGGTA
binding result (INSM1 ZF3): binds | binding result (INSM1 ZF1-ZF5 [2]): binds

B3: MCAT (FAM) (dsDNA)
DNA 1: AGTGGAATGTGC
DNA 2: GCACATTCCACT
binding result (TEAD1-TEAD R80A): binds | binding result (TEAD1-TEAD L79A): binds | binding result (TEAD1-TEAD R75A): binds | Kd (INSM1 ZF1-ZF5 [3]): 8.24 µM | Kd (TEAD1-TEAD): ~0.09 µM | binding result (INSM1 ZF1;TEAD1-TEAD [4]): binds

B4: M2 (FAM) (dsDNA)
DNA 1: TACCACCAGGGGGCAGT
DNA 2: ACTGCCCCCTGGTGGTA
Kd (CTCF ZF3-ZF7): 0.0984 µM

B5: MCAT (unlabeled) (dsDNA)
DNA 1: AGTGGAATGTGC
DNA 2: GCACATTCCACT
binding result (INSM1 ZF1;TEAD1-TEAD [5]): binds

Reference: PMC11880201
